Data from US20200080117A1 (UNIVERSIDAD POLIT CNICA DE MADRID, published 2020).

Target: T1, NifU (A. vinelandii NifU expressed in yeast strain SB33Y as SU9-NifU) (Azotobacter vinelandii, UniProt P05340 2-312)
T1 sequence: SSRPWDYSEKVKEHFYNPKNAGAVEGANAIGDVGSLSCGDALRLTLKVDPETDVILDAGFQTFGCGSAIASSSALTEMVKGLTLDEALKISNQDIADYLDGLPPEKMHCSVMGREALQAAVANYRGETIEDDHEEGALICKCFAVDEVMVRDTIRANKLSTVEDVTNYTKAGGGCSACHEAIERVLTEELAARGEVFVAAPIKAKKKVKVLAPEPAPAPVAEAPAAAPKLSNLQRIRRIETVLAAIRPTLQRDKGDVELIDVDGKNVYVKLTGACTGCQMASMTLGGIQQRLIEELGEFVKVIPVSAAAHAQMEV
Assay: co-purification on Strep-Tactin column from SB33Y extract, immunoblot

binding result: no binding
B1: TS-NifB^USF (SU9-Twin-Strep-NifBMi purified from yeast strain SB33Y, co-expressed with NifU, NifS and FdxN-HA) (enzyme)
chain: not shown
notes: Same polypeptide as m1, purified from SB33Y; As isolated it carries about 6.1 Fe per monomer as [4Fe-4S] clusters and is active; The range 68-405 was derived from the printed N-terminus SSSAW; also called SU9-TS-NifBMi
